Experiment [1] has as its target T1, His-StrepTagII-HRV3C-cyno VWF-CK-HA-tag (cynomolgus monkey).
T1 construct: it begins with the VWF signal peptide, whose limits were marked only by underlining that is lost in the text, so it was not cut off; The CK domain forms disulfide-linked homodimers; also called recombinant cyno CK domain; Cyno CK
T1 chain: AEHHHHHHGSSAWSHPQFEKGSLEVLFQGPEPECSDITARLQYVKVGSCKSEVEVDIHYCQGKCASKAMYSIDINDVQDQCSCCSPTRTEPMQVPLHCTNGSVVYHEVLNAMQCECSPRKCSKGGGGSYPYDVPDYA
As to the kind of experiment: solution-phase equilibrium binding, free antibody by ELISA; apparent Kd; pH 5.5; mean ± SD, n=2.
Experimental: (§1) Following incubation for 30 min at room temperature to establish equilibrium, unbound antibody was quantified by ELISA using the immobilized human CK domain for capture and HRP-conjugated goat anti-human IgG Fc antibody for detection.
(§2) Following a single wash of the plate with 200 μL of wash buffer (TBS containing 0.05% (v/v) Tween-20 and 5 mM CaCl₂), the plate was blocked by incubation with 200 μL blocking buffer (TBS containing 5 mM CaCl₂ and 1% (w/w) BSA) for 1 hour at room temperature. […] Incubation lasted 3 min and was followed by 5-min incubation with 100 μL HRP-conjugated goat anti-human IgG Fc antibody for detection (1 mg/mL stock diluted 1:20,000 in blocking buffer). Before and after addition of a detection antibody, the plate was washed 5 times with 200 μL wash buffer. A chromogenic horseradish peroxidase (HRP) substrate (100 μL) was then added and following color development for 3 min, 100 μL ELISA stop solution were added to quench the reaction. Absorbance was measured at 450 nm with subtraction of the absorbance at 620 nm.
(§3) The standard curve prepared with free antibody was fitted to a Sigmoidal four-parameter logistic (4PL) model.

Experiment [2] has as its target T2, His-StrepTagII-HRV3C-human VWF-CK-HA-tag (human).
T2 construct: it begins with the VWF signal peptide, whose limits were marked only by underlining that is lost in the text, so it was not cut off; The CK domain forms disulfide-linked homodimers (CK dimer); also called recombinant human CK domain; Human CK
T2 chain: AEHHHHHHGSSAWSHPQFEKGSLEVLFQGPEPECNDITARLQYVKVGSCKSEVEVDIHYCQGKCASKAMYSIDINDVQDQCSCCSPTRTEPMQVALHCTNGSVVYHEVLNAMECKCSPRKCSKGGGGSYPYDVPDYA
Described as above.
Experimental: as §1, §2, §3

Experiment [3] addresses T3, VWF in human plasma (human, UniProt P04275 764-2813).
T3 construct: Endogenous VWF in donor plasma, not purified; multimeric; also called VWF in plasma; VWF in platelet rich plasma
As to the kind of experiment: flow cytometry, FITC anti-VWF on platelets; human PRP (2 donors), 0.5 mg/ml ristocetin, 600 nM antibody; relative to the same plasma without antibody; receptor platelet gp1b.
Experimental: PRP was prepared by centrifuging the blood at 250 g for 15 min. […] Sample analysis was performed on a flow cytometer. Using forward (FSC) and sideward (SSC) scatter pattern, a gate was placed on the platelets.

Experiment [4] addresses T3, VWF in human plasma. As to the kind of experiment: VWF:FVIIIB enzyme immunoassay; human plasma (5 donors) 17 h 37 °C with 200 nM antibody; FVIII bound to captured VWF relative to untreated plasma; ligand FVIII.
Experiment [5] deals with T1, His-StrepTagII-HRV3C-cyno VWF-CK-HA-tag. As to the kind of experiment: solution-phase equilibrium binding, free antibody by ELISA; apparent Kd; pH 7.4; mean ± SD, n=2.
Experimental: as §1, §2, §3
The target of experiment [6] is T2, His-StrepTagII-HRV3C-human VWF-CK-HA-tag. The experiment is described as above.
Experimental: as §1, §2, §3
For the next experiment, the target named is T4, human plasma-derived VWF (human, UniProt P04275 764-2813).
T4 construct: multimeric; also called pd-VWF; Human VWF
Described as above.

Experiment [7] has as its target T3, VWF in human plasma. As to the kind of experiment: VWF:FVIIIB enzyme immunoassay; human plasma (5 donors) 17 h 37 °C with 600 nM antibody; FVIII bound to captured VWF relative to untreated plasma; ligand FVIII.
For experiment [8], the target named is T3, VWF in human plasma. As to the kind of experiment: collagen type III binding ELISA; human plasma (5 donors) 17 h 37 °C with 600 nM antibody; VWF bound to collagen relative to untreated plasma; ligand collagen type III. For orientation: In an ELISA, binding on a coated surface is turned into a signal by an enzyme label.
Experimental: Following incubation, collagen binding was determined relative to untreated plasma.

Experimental for human plasma-derived VWF: as §1, §2, §3

B1: Lib1_P1_A9 OA (antibody, human IgG4 S228P, kappa, F234A L235A)
heavy: QVQLVQSGAEVKKPGASVKVSCKVSGDTLSSYGIHWVRQAPGKGLEWMGGSIPSFGTAIYAQKFQGRVTMTEDTSTDTAYMELSSLKSEDTAVYYCTSEGPWLPFFSFDYWGQGTLVTVSSASTKGPSVFPLAPCSRSTSESTAALGCLVKDYFPEPVTVSWNSGALTSGVHTFPAVLQSSGLYSLSSVVTVPSSSLGTKTYTCNVDHKPSNTKVDKRVESKYGPPCPPCPAPEAAGGPSVFLFPPKPKDTLMISRTPEVTCVVVDVSQEDPEVQFNWYVDGVEVHNAKTKPREEQFNSTYRVVSVLTVLHQDWLNGKEYKCKVSNKGLPSSIEKTISKAKGQPREPQVYTLPPSQEEMTKNQVSLSCAVKGFYPSDIAVEWESNGQPENNYKTTPPVLDSDGSFFLVSRLTVDKSRWQEGNVFSCSVMHEALHNHYTQKSLSLSLG
chain: ESKYGPPCPPCPAPEAAGGPSVFLFPPKPKDTLMISRTPEVTCVVVDVSQEDPEVQFNWYVDGVEVHNAKTKPREEQFNSTYRVVSVLTVLHQDWLNGKEYKCKVSNKGLPSSIEKTISKAKGQPREPQVYTLPPSQEEMTKNQVSLWCLVKGFYPSDIAVEWESNGQPENNYKTTPPVLDSDGSFFLYSRLTVDKSRWQEGNVFSCSVMHEALHNHYTQKSLSLSLG
light: DIQMTQSPSSVSASVGDRVTITCRASQGISRNLAWYQQKPGKAPKLLIYKASSLASGVPSRFSGSGSGTDFTLTISSLQPEDFANYYCQQSFSTPVTFGGGTKVEIKRTVAAPSVFIFPPSDEQLKSGTASVVCLLNNFYPREAKVQWKVDNALQSGNSQESVTEQDSKDSTYSLSSTLTLSKADYEKHKVYACEVTHQGLSSPVTKSFNRGEC
notes: also called monovalent (one-arm) Lib1_P1_A9
Consider B1, for which the Kd in [1] was 26.4 nM; in [2], 17.9 nM; in experiment [5] it was 10.2 nM; in experiment [6] it was 5.3 nM; in the experiment with human plasma-derived VWF it was 5.7 nM. The “Platelet binding (% control)” value in the experiment with VWF in human plasma [3] came to 89.7 % control. In addition, the “VWF:FVIII level (% of control)” value with VWF in human plasma [4] is 91.1 % of control; with VWF in human plasma [7], 93.9 % of control. The “Collagen binding (% control)” value with VWF in human plasma [8] is 106 % control.

B2: Lib1_P1_A6 OA (antibody, human IgG4 S228P, kappa, F234A L235A)
heavy: QVQLVQSGAEVKKPGASVKVSCKVSGSTFSNYAIHWVRQAPGKGLEWMGGIVPLSGTAIYAQKFQGRVTMTEDTSTDTAYMELSSLKSEDTAVYYCARDQGESSGWYAIYYGMDVWGQGTTVTVSSASTKGPSVFPLAPCSRSTSESTAALGCLVKDYFPEPVTVSWNSGALTSGVHTFPAVLQSSGLYSLSSVVTVPSSSLGTKTYTCNVDHKPSNTKVDKRVESKYGPPCPPCPAPEAAGGPSVFLFPPKPKDTLMISRTPEVTCVVVDVSQEDPEVQFNWYVDGVEVHNAKTKPREEQFNSTYRVVSVLTVLHQDWLNGKEYKCKVSNKGLPSSIEKTISKAKGQPREPQVYTLPPSQEEMTKNQVSLSCAVKGFYPSDIAVEWESNGQPENNYKTTPPVLDSDGSFFLVSRLTVDKSRWQEGNVFSCSVMHEALHNHYTQKSLSLSLG
chain: ESKYGPPCPPCPAPEAAGGPSVFLFPPKPKDTLMISRTPEVTCVVVDVSQEDPEVQFNWYVDGVEVHNAKTKPREEQFNSTYRVVSVLTVLHQDWLNGKEYKCKVSNKGLPSSIEKTISKAKGQPREPQVYTLPPSQEEMTKNQVSLWCLVKGFYPSDIAVEWESNGQPENNYKTTPPVLDSDGSFFLYSRLTVDKSRWQEGNVFSCSVMHEALHNHYTQKSLSLSLG
light: DIQMTQSPSSVSASVGDRVTITCRASQGIGTWLAWYQQKPGKAPKLLIYGSSSRASGVPSRFSGSGSGTDFTLTISSLQPEDFANYYCQQSYGKPTFGGGTKVEIKRTVAAPSVFIFPPSDEQLKSGTASVVCLLNNFYPREAKVQWKVDNALQSGNSQESVTEQDSKDSTYSLSSTLTLSKADYEKHKVYACEVTHQGLSSPVTKSFNRGEC
notes: also called monovalent (one-arm) Lib1_P1_A6
Turning to B2, the Kd in experiment [1] was determined as 13 nM; in experiment [2] it was 8.2 nM; in experiment [5] it was 3.4 nM; in experiment [6] it was 2.7 nM; in the experiment with human plasma-derived VWF it was 2.7 nM. Also, the “Platelet binding (% control)” value with VWF in human plasma [3] was found to be 69.2 % control. Further, the “VWF:FVIII level (% of control)” value in the experiment with VWF in human plasma [4] is 89.7 % of control; in the experiment with VWF in human plasma [7] it was 88.6 % of control. Further, the “Collagen binding (% control)” value in the experiment with VWF in human plasma [8] worked out at 103 % control.

The record behind these values is US20250154283A1 (published 2025).
